Results taken from patent US7674958B2 (Athenix Corporation, priority 2005, dated 2010).

Experiments:
Type in all cases: cell-based
[1] = test system: E. coli strain DH5α with pUC18-Grg23 (pAX1927); assay: Growth on glyphosate plates, grg23-expressing cells; conditions: concentration to which resistance is conferred
Description: Isopropyl-B-D-thiogalactopyranoside (IPTG; 0.1 mM) was also added to the plates. As a control, cells containing pUC18 vector alone were transformed and streaked onto glyphosate plates.

[2] = test system: E. coli cells containing pAX1967 (GRG51); assay: Glyphosate screen on M63+ plates, GRG51-expressing cells; conditions: 2 days, 37° C.
Description: Cells containing pAX1967 were plated onto M63+ plates containing antibiotic and either 0 mM or 20 mM glyphosate. Growth was scored after two days growth at 37° C.

BL21*DE3 E. coli cells = assay: Selection of mutant GRG23 enzymes conferring glyphosate resistance in E. coli on 150 mM glyphosate plates; conditions: clones selected on 150 mM glyphosate; extract activity equal to or superior to GRG23
Description: The mutagenized syngrg23 libraries were transformed into E. coli strain BL21*DE3 star (Invitrogen). Following transformation, individual colonies were plated on 1× M63 medium containing 150 mM glyphosate to select for clones that had retained enzymatic activity and growth tolerance.
The plates were incubated for 36 hours at 37° C.
Library plates of extracts of mutagenized syngrg23 clones were assayed for improved enzymatic activity as follows: Library clones were pinned into 96-well blocks containing LB medium and were grown to an O.D. of about 0.6. IPTG was then added (0.5 mM) and the blocks were incubated overnight at 20° C. to induce protein expression. Protein extracts were prepared from the cell pellets using POP culture reagent (Novagen), and the enzymatic activity in the crude lysates was measured. […] The DNA sequences of the clones corresponding to these extracts were determined.

Molecule	glyphosate resistance [1]	resistance to glyphosate [2] [mM]	Glyphosate resistance of GRG23 variants (BL21*DE3 E. coli cells)
O=C(O)CNCP(=O)(O)O [glyphosate, N-phosphonomethylglycine]	at least 100 mM	20	–
GRG23(L3P1.B20): GRG23 variant (SEQ ID NO:27), V206→I (protein, grg23(L3P1.B20)) METDRLVIPGSKSITNRALLLAAAAKGTSVLVRPLVSADTSAFKTAIQALGANVSADGDNWVVEGLGQAPHLDADIWCEDAGTVARFLPPFVAAGQGKFTVDGSEQLRRRPLRPLVDGIRHLGARVSSEQLPLTIEASGLAGGEYEIEAHQSSQFASGLIMAAPYARQGLRVRIPNPVSQPYLTMTLRMMRDFGLETSTDGATVSIPPGRYTARRYEIEPDASTASYFAAASAVSGRSFEFQGLGTDSIQGDTSFFNVLGRLGAEVHWAPNSVTISGPERLNGDIEVDMGEISDTFMTLAAIAPLADGPITITNIGHARLKESDRISAMETNLRTLGVQTDVGHDWMRIYPSTPHGGRVNCHRDHRIAMAFSILGLRVDGITLDDPQCVGKTFPGFFDYLGRLFPEKALTLPG	–	–	retained glyphosate resistance
GRG23(L3P1.F18): GRG23 variant (SEQ ID NO:31), T274→I (protein, grg23(L3P1.F18)) METDRLVIPGSKSITNRALLLAAAAKGTSVLVRPLVSADTSAFKTAIQALGANVSADGDNWVVEGLGQAPHLDADIWCEDAGTVARFLPPFVAAGQGKFTVDGSEQLRRRPLRPLVDGIRHLGARVSSEQLPLTIEASGLAGGEYEIEAHQSSQFASGLIMAAPYARQGLRVRIPNPVSQPYLTMTLRMMRDFGLETSTDGATVSVPPGRYTARRYEIEPDASTASYFAAASAVSGRSFEFQGLGTDSIQGDTSFFNVLGRLGAEVHWAPNSVIISGPERLNGDIEVDMGEISDTFMTLAAIAPLADGPITITNIGHARLKESDRISAMETNLRTLGVQTDVGHDWMRIYPSTPHGGRVNCHRDHRIAMAFSILGLRVDGITLDDPQCVGKTFPGFFDYLGRLFPEKALTLPG	–	–	retained glyphosate resistance
GRG23(L3P1.B3): GRG23 variant (SEQ ID NO:29), D75→H, E217→K (protein, grg23(L3P1.B3)) METDRLVIPGSKSITNRALLLAAAAKGTSVLVRPLVSADTSAFKTAIQALGANVSADGDNWVVEGLGQAPHLDAHIWCEDAGTVARFLPPFVAAGQGKFTVDGSEQLRRRPLRPLVDGIRHLGARVSSEQLPLTIEASGLAGGEYEIEAHQSSQFASGLIMAAPYARQGLRVRIPNPVSQPYLTMTLRMMRDFGLETSTDGATVSVPPGRYTARRYKIEPDASTASYFAAASAVSGRSFEFQGLGTDSIQGDTSFFNVLGRLGAEVHWAPNSVTISGPERLNGDIEVDMGEISDTFMTLAAIAPLADGPITITNIGHARLKESDRISAMETNLRTLGVQTDVGHDWMRIYPSTPHGGRVNCHRDHRIAMAFSILGLRVDGITLDDPQCVGKTFPGFFDYLGRLFPEKALTLPG	–	–	retained glyphosate resistance
